In the Immune Epitope Database (IEDB) one finds Kd data, which are given here for 22 sequences.

One test concerns the target HLA-B*44:02. Briefly: IEDB peptide-MHC binding, purified MHC/competitive/radioactivity; filed as Kd, often an IC50 or EC50 that approximates it; ≥ and ≤ were set here for values at or beyond the usual limits of such assays.
Test [1] addresses HLA-A*01:01. The description is as above.
In a further test the target is HLA-A*23:01. The test is described as above.
A further test addresses HLA-A*24:02. The test is described as above.
For another test, the target named is HLA-A*26:01. The test is described as above.
The target of the next test is HLA-A*29:02. The test is described as above.
The target of another test is HLA-A*30:02. The description is as above.
In another test the target is HLA-A*02:01. Briefly: IEDB peptide-MHC binding, purified MHC/direct/fluorescence; filed as Kd, often an IC50 or EC50 that approximates it; ≥ and ≤ were set here for values at or beyond the usual limits of such assays.
The next test has as its target HLA-A*69:01. The test is described as above.
Test [2] addresses HLA-A*01:01. Described as above. The settings on record: source organism: Giardia lamblia ATCC 50803.
Another test deals with HLA-A*03:01. The test is described as above. Conditions: source organism: SARS-CoV1.
For another test, the target named is HLA-A*02:02. As to the kind of experiment: IEDB peptide-MHC binding, purified MHC/competitive/radioactivity; filed as Kd, often an IC50 or EC50 that approximates it; ≥ and ≤ were set here for values at or beyond the usual limits of such assays. Conditions: source organism: SARS coronavirus Tor2.
The target in the next test is HLA-A*02:03. The test is described as above. Conditions: source organism: SARS coronavirus Tor2.
For another test, the target named is HLA-A*02:06. Described as above.
In the next test the target is HLA-A*30:01. Described as above. Conditions: source organism: Dengue virus 4 Philippines/H241/1956.
The mark [3] stands for this setting: source organism: Dengue virus 4 Philippines/H241/1956.
Setting [4] is: source organism: SARS coronavirus Tor2.
[5] abbreviates: source organism: Mammarenavirus machupoense.
[6] abbreviates: source organism: Salmonella enterica subsp. enterica serovar Paratyphi A.
Where [7] appears, read: source organism: Dengue virus 3 Martinique/1243/1999.
The mark [8] stands for this setting: source organism: Vaccinia virus WR.
Where [9] appears, read: source organism: Lymphocytic choriomeningitis virus (strain Armstrong).
Where [10] appears, read: source organism: Lassa virus Josiah.

For orientation: Kd means the equilibrium constant for the complex coming apart. Consider YDQENPYRTW, for which, in the test with HLA-B*44:02 (setting [3]), the Kd amounted to 156 nM.
For the sequence KYKYFSGAL, the dissociation constant (Kd) in the test with HLA-A*01:01 [1] (setting [4]) was no less than 78100 nM; with HLA-A*23:01 (setting [4]), 15000 nM; with HLA-A*24:02 (setting [4]) it was no less than 25700 nM; with HLA-A*26:01 (setting [4]) it was no less than 75500 nM; in the test with HLA-A*29:02 (setting [4]), no less than 25000 nM; with HLA-A*30:02 (setting [4]) it was no less than 44600 nM.
Consider DFGSVGGLF, for which the Kd in the test with HLA-A*24:02 (source organism: Dengue virus 4 Dominica/814669/1981) worked out at 2640 nM.
Turning to AYSKSLKELV, the equilibrium dissociation constant (Kd) is no less than 70400 nM in the test with HLA-A*01:01 [1] (setting [5]); 16300 nM in the test with HLA-A*23:01 (setting [5]); 2640 nM with HLA-A*24:02 (setting [5]); no less than 69700 nM with HLA-A*26:01 (setting [5]); no less than 57000 nM in the test with HLA-A*29:02 (setting [5]); no less than 26700 nM with HLA-A*30:02 (setting [5]).
As to AQLPRWVAT, the Kd amounted to 19900 nM in the test with HLA-A*02:01 (setting [6]) and 7000 nM in the test with HLA-A*69:01 (setting [6]).
For KVDWNQFTY, the Kd with HLA-A*01:01 [2] was 2 nM.
On to EWSVATFYL, for which the Kd with HLA-A*01:01 [1] (setting [4]) is no less than 78100 nM; in the test with HLA-A*23:01 (setting [4]) it was 5500 nM; with HLA-A*24:02 (setting [4]), 1780 nM; in the test with HLA-A*26:01 (setting [4]), no less than 45400 nM; with HLA-A*29:02 (setting [4]), no less than 59400 nM; with HLA-A*30:02 (setting [4]), no less than 29700 nM.
FSNSGADVLY: the Kd was 15.3 nM with HLA-A*01:01 [1] (setting [4]); no less than 70000 nM with HLA-A*23:01 (setting [4]); no less than 70300 nM in the test with HLA-A*24:02 (setting [4]); 3560 nM with HLA-A*26:01 (setting [4]); 74.9 nM in the test with HLA-A*29:02 (setting [4]); 9.14 nM with HLA-A*30:02 (setting [4]).
Consider NEWITDFAG, for which the Kd with HLA-B*44:02 (setting [7]) is 6550 nM.
Same read-out and setting: for GDNALKINW the value was 150 nM.
Turning to FVSLAIDAY, the Kd is 2450 nM with HLA-A*01:01 [1] (setting [4]); no less than 28800 nM with HLA-A*23:01 (setting [4]); 17300 nM with HLA-A*24:02 (setting [4]); 1730 nM with HLA-A*26:01 (setting [4]); 21.6 nM in the test with HLA-A*29:02 (setting [4]); 897 nM in the test with HLA-A*30:02 (setting [4]).
As to LFSGVSWTM, the Kd in the test with HLA-A*24:02 (source organism: Dengue virus 1 Brazil/97-11/1997) turned out to be 449 nM.
For QSDTVFDYY, the Kd with HLA-A*23:01 (setting [8]) is no less than 32500 nM; with HLA-A*24:02 (setting [8]), no less than 72700 nM.
Regarding WIEFTNFKV, the Kd with HLA-A*01:01 [1] (setting [5]) is no less than 78100 nM; with HLA-A*23:01 (setting [5]), no less than 77700 nM; with HLA-A*24:02 (setting [5]), no less than 77500 nM; with HLA-A*26:01 (setting [5]), no less than 77900 nM; in the test with HLA-A*29:02 (setting [5]), 8070 nM; in the test with HLA-A*30:02 (setting [5]), no less than 49900 nM.
For the sequence RYQVVECKEV, the Kd was no less than 70400 nM with HLA-A*01:01 [1] (setting [9]); no less than 70000 nM with HLA-A*23:01 (setting [9]); no less than 70300 nM with HLA-A*24:02 (setting [9]); no less than 69700 nM in the test with HLA-A*26:01 (setting [9]); no less than 71400 nM in the test with HLA-A*29:02 (setting [9]); 159 nM with HLA-A*30:02 (setting [9]).
On to HWPKSHTLW, for which the Kd with HLA-A*24:02 (source organism: Dengue virus 2 Jamaica/1409/1983) was 1170 nM.
With GLMWLSYFV, the Kd in the test with HLA-A*02:01 (source organism: SARS-CoV1) was 3190 nM; with HLA-A*03:01, no less than 33000 nM; in the test with HLA-A*69:01 (source organism: SARS-CoV1), 347 nM; in the test with HLA-A*02:02 it was 0.199 nM; in the test with HLA-A*02:03, 0.82 nM; in the test with HLA-A*02:06 (setting [4]) it was 0.975 nM.
For TWLVHKQWF, the Kd with HLA-A*23:01 (setting [3]) stood at 282 nM; in the test with HLA-A*24:02 (setting [3]), 302 nM.
LYNFATCGLV: the Kd in the test with HLA-A*01:01 [1] (setting [10]) was no less than 31300 nM; in the test with HLA-A*23:01 (setting [10]) it was 2350 nM; in the test with HLA-A*24:02 (setting [10]), 11900 nM; with HLA-A*26:01 (setting [10]), no less than 69700 nM; with HLA-A*29:02 (setting [10]) it was 620 nM; with HLA-A*30:02 (setting [10]), 575 nM.
On to AESLVGFLFY, for which the Kd with HLA-A*01:01 [1] (setting [5]) was no less than 52100 nM; with HLA-A*23:01 (setting [5]), no less than 66200 nM; with HLA-A*24:02 (setting [5]) it was no less than 70300 nM; in the test with HLA-A*26:01 (setting [5]) it was no less than 69700 nM; with HLA-A*29:02 (setting [5]), 97.6 nM; in the test with HLA-A*30:02 (setting [5]) it was 450 nM.
Take RTIMAVLFV: the values for the Kd with HLA-A*02:06 (setting [3]) and in the test with HLA-A*30:01 were 19.4 nM and 135 nM, respectively.
FSSRMYCSFY: the Kd with HLA-A*01:01 [1] (setting [4]) is 2.72 nM; with HLA-A*23:01 (setting [4]), no less than 42400 nM; with HLA-A*24:02 (setting [4]) it was no less than 43100 nM; with HLA-A*26:01 (setting [4]) it was 23 nM; in the test with HLA-A*29:02 (setting [4]), 40.2 nM; with HLA-A*30:02 (setting [4]), 2.15 nM.
